The values that follow come from article PMC2597217.

In data set [1] the target is FoxO1 DBD S249E (human, UniProt Q12778 151-266, S249E). As to the kind of experiment: EMSA.
Data set [2] deals with FoxO1 DBD S184C (human, UniProt Q12778 151-266, S184C). The data set can be described thus: crystal structure.
The target in data set [3] is FoxO1 DBD A207C (human, UniProt Q12778 151-266, A207C). The data set can be described thus: crystal structure.
FoxO1 DBD A207C, sequence (Q12778 151-266 A207C): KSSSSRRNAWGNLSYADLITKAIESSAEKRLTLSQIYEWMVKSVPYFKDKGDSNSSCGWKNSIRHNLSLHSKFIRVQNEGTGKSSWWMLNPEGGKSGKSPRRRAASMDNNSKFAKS

FoxO1 DBD S249E, sequence (Q12778 151-266 S249E): as the sequence (Q12778 151-266 A207C) above, with C57A, S99E counted along it
FoxO1 DBD S184C, sequence (Q12778 151-266 S184C): as the sequence (Q12778 151-266 A207C) above, with S34C, C57A counted along it

B1: DBE2 (dsDNA)
DNA 1: TCTTGTTTACATTTTG
DNA 2: CAAAATGTAAACAAGA
Consider B1, for which, in data set [1], the binding result is given as “binds”.

B2: IRE (dsDNA)
DNA 1: TGGTTTGTTTTGCTTG
DNA 2: CAAGCAAAACAAACCA
As to B2, the binding result in data set [1], in data set [2] and in data set [3] was “binds” throughout.
